Measured values from the DeepSol protein solubility set.

Assay: soluble on expression in E. coli; label from the status in PepcDB or PDB records

Sequence	soluble on expression in E. coli
MTSLIGTHSGKFHCDEAFACFMLKQLPQFKDHSILRTRDAAQLEKCDIIVDVGGIFDHSKQRYDHHQRGFTDTMRTLEKLNFDTKLSSAGLVYAHYGREVINQILGGNVSSSMIDLFYHRLYEQFVESIDAIDNGISQYDGVPRYHSSGNLSSRTGQFNSHWNEPENDADERFQQAMQFIGEEFSRSVKYLANVWWPAREIIEAAVDKRFEIDASGRIILIENGGCPWKEHFFDIEVEKNIADDNITYILFSDSTNASWRVQAIPVDKMSSFENRMPLPAAWRGLRDDDLSKESGIPGGVFVHISGFIGGNLTREGAIAMARKALEIGEENPVKKAKLGN	soluble
MTSRGDSREKILHTASRLSQLQGYHATGLNQIVKESGAPKGSLYHFFPNGKEELAIEAVTYTGKIVEHLIQQSMDESSDPVEAIQLFIKKTASQFDNTESIKGIPVGLLASETALISEPLRTVCMKVFKSWEAVFARKLMENGFAEEEANQLGTLINSMIEGGIMLSLTNKDKTPLLLIAEQIPVLVRKKG	soluble
MTSSLVLILAPLALVAIGEAAFGNSSKIFEIPGLEVMASDKYPHFTTIETVSRTKVHRHRREVIAGQIYDWNSYEIPFQIWGGDYNFQSLIRRGIRMWEDSTCLRFKENQQSRDAIRYVLEKGDSCFTEYIGRNGGHQDIIIGSECAEEYVVAHETGHALGFWHTHQRPDRDRHISINWKNVMEEATASFMPFRSMLQAFGIRQVSPRRVPYDYGSLMHYHAVAHAVKVSDFTIVPKELKYVTTMGTEKMAFLDAKVINDIYCPNACQGRNHLNCLAGGYPDPNNCNVCRCPEGLGGPDCGRLQPSPCGGEIHASDQWQTLSSPSGRDVHCYWRISVPEGSRVRFRLSDGEFPCSYGCQSYVEIKHKLDVRLTGFRSCCYRPKEDTVSESNQIFVIYHPNGRTARFSLRFRRQA	not soluble
MTTARPAKARNEGQWALGHREPLNANEELKKAGNPLDVRERIENIYAKQGFDSIDKTDLRGRFRWWGLYTQREQGYDGTWTGDDNIDKLEAKYFMMRVRCDGGALSAAALRTLGQISTEFARDTADISDRQNVQYHWIEVENVPEIWRRLDDVGLQTTEACGDCPRVVLGSPLAGESLDEVLDPTWAIEEIVRRYIGKPDFADLPRKYKTAISGLQDVAHEINDVAFIGVNHPEHGPGLDLWVGGGLSTNPMLAQRVGAWVPLGEVPEVWAAVTSVFRDYGYRRLRAKARLKFLIKDWGIAKFREVLETEYLKRPLIDGPAPEPVKHPIDHVGVQRLKNGLNAVGVAPIAGRVSGTILTAVADLMARAGSDRIRFTPYQKLVILDIPDALLDDLIAGLDALGLQSRPSHWRRNLMACSGIEFCKLSFAETRVRAQHLVPELERRLEDINSQLDVPITVNINGCPNSCARIQIADIGFKGQMIDDGHGGSVEGFQVHLGGHLGLDAGFGRKLRQHKVTSDELGDYIDRVVRNFVKHRSEGERFAQWVIRAEEDDLR	soluble
MTTDERKLFNHLKSPHLKYWVPFIWFGNLATKARNEGRIRDSVDLQSLMTEMNRYRSWCSLLFGYDWVGIPLVYTQVAEQLINPFGEDDDDFETNWCIDRNLQVSLLAVDEMHMSLPKMKKDIYWDDSAARPPYTLAAADYCIPSFLGSTVQMGLSGSDFPDEEWLWDYEKHGHRHSMIRRVKRFLSAHEHPSSPRRRSYRRQTSDSSMFLPRDDLSPARDLLDVPSRNPPRASPTWKKSCFPEGSPTLHFSMGELSTIRETSQTSTL	soluble
MTTEAPIWPAELFEDLDRNGPIPLYFQVAQRLEDGIRSGVLPPGARLENEISVAKHLNVSRPTVRRAIQEVVDKGLLVRRRGVGTQVVQSHVTRPVELTSFFNDLKNANLDPKTRVLEHRLLAASSAIAEKLGVSAGDEVLLIRRLRSTGDIPVAILENYLPPAFNDVSLDELEKGGLYDALRSRGVVLKIANQKIGARRAVGEESTLLDIEDGGPLLTVERVALDNSGQVIELGSHCYRPDMYNFETTLVAR	soluble
MTTIASFPILQLPEKSLKIAIQSLTLEELIKFSLISKSTKRAAESLNLQADPFCDLY	not soluble
MTTNEEFIRTQIFGTVFEITNRYNDLNPVGMGAFGLVCSATDTLTSQPVAIKKIMKPFSTAVLAKRTYRELKLLKHLRHENLICLQDIFLSPLEDIYFVTELQGTDLHRLLQTRPLEKQFVQYFLYQILRGLKYVHSAGVIHRDLKPSNILINENCDLKICDFGLARIQDPQMTGYVSTRYYRAPEIMLTWQKYDVEVDIWSAGCIFAEMIEGKPLFPGKDHVHQFSIITDLLGSPPKDVINTICSENTLKFVTSLPHRDPIPFSERFKTVEPDAVDLLEKMLVFDPKKRITAADALAHPYSAPYHDPTDEPVADAKFDWHFNDADLPVDTWRVMMYSEILDFHKIGGSDGQIDISATFDDQVAAATAAAAQAQAQAQAQVQLNMAAHSHNGAGTTGNDHSDIAGGNKVSDHVAANDTITDYGNQAIQYANEFQQ	soluble
